This test has as its target T1, DGI-2 (UniProt Q15004 1-111, limits assumed).
T1 construct: Soluble recombinant DGI-2 made by in vitro translation (RTS, pIVEX2.3-MCS vector) and coated on plates for the ELISA; vector tag not described; also called KIAA0101; DGI-2 polypeptide
T1 sequence (looked up): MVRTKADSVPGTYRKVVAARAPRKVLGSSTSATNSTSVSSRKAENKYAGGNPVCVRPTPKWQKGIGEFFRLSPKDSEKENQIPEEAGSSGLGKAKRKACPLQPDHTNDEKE
As to the kind of experiment: phage ELISA, coated DGI-2. As to the method:
For analysis of individual target binders, colonies were picked and phage prepared as described above using helper phage, M13KO7. Ninety-six-well microtiter plates were coated with 500 ng/well of specific target protein, 500 ng/well lactate dehydrogenase (LDH) irrelevant or non-specific target, 500 ng/well of positive control antibody raised against ETAG, and negative control of non-fat milk powder-PBS 2% at 4° C. overnight. Plates were then blocked with 350 microliters/well PBS containing 2% non-fat milk for 1 hr at room temperature. One hundred microliters per well of phage from isolated clones were added and plates were incubated at room temperature for 2 hr after centrifuging samples for 20 minutes at 3500 rpm at 4° C. The phage solution was then removed, and the wells were washed three times with PBS at room temperature. Antibody raised against M13 conjugated to horseradish peroxidase (Pharmacia) was diluted 1:3000 in PBS-Tween and added to each well (100 µl/well). Incubation was for 1 hr at room temperature, followed by washing with PBS-(0.5%) Tween 3 times as described. Color was developed by addition of ABTS solution (100 µl/well; Boehringer, Indianapolis, Ind.). Plates were analyzed at 405 nm. A clone was considered "positive" if the $A405$ of the well was $\geq$2-fold over background.

No end group written: not given here.

Take VTGTRFRGFAVACVRMGTWH (on M13 phage, pIII fusion with E-tag) [DGI-2-20F-PP-F2]: the binding result was “binds”. Regarding RRFVRCSVPVALRSAVPVSV (on M13 phage, pIII fusion with E-tag) [DGI-2-20F-PP-A10], the binding result is given as “binds”.

As for LSLEGGWMWDTKGGDGGSAQ (on M13 phage, pIII fusion with E-tag) [DGI-2-20R-4-F93], the binding result was “binds”. In the case of SRELGKWGRLWQDWSSGNFS (on M13 phage, pIII fusion with E-tag) [DGI-2-20R-3-C11] it was “binds”; in that of VSGVPDGSMRAAQLASGYWC (on M13 phage, pIII fusion with E-tag) [DGI-2-20F-PP-G2], “binds”. The same measure for VGHLLSRCAHHSPGMGASPYG (on M13 phage, pIII fusion with E-tag) [DGI-2-20F-PP-B11]: “binds”.

As for VVHTRAWGSWAYGFVLRNRG (on M13 phage, pIII fusion with E-tag) [DGI-2-20F-PP-F10], the binding result is listed as “binds”.

As to WVVALRRIRLGLRRGVECLL (on M13 phage, pIII fusion with E-tag) [DGI-2-20F-PP-D5], the binding result was “binds”. In the case of RGSLLLTLPRLSGAVGTAYG (on M13 phage, pIII fusion with E-tag) [DGI-2-20F-PP-B3] it was “binds”; in that of LVIGQRSFLSACSLFDGFCV (not fully specified; cysteine pairing not given here, on M13 phage, pIII fusion with E-tag) [DGI-2-20R-4-H814], “binds”; in that of TPVAISIPAGVCSTSVCGRD (not fully specified; cysteine pairing not given here, on M13 phage, pIII fusion with E-tag) [DGI-2-20F-PP-C11], “binds”. Consider DRHRAFVAEGLDGFRHSTGV (on M13 phage, pIII fusion with E-tag) [DGI-2-20F-PP-D4], for which the binding result was “binds”. The same measure for CCAWNGVGVGGLGWRVVVGP (on M13 phage, pIII fusion with E-tag) [DGI-2-20F-PP-H4]: “binds”; for GWSDFVATGSWSGQVSAALN (on M13 phage, pIII fusion with E-tag) [DGI-2-20R-4-F120]: “binds”; for GGSLPVKSGQLVTCCTSKGG (on M13 phage, pIII fusion with E-tag) [DGI-2-20F-PP-F5]: “binds”. In the case of LFRFSGTGMASLPCVGWHLV (on M13 phage, pIII fusion with E-tag) [DGI-2-20F-PP-B6] it was “binds”; in that of VQSGRDLGGLLRGGTGTEASP (on M13 phage, pIII fusion with E-tag) [DGI-2-20F-PP-D3], “binds”. The same measure for GGDLGEQGVQLCPDVVRGGSL (on M13 phage, pIII fusion with E-tag) [DGI-2-20F-PP-A7]: “binds”. Turning to VCSGGKGTWLEIPDRVRSST (on M13 phage, pIII fusion with E-tag) [DGI-2-20F-PP-A22], the binding result was “binds”. The same measure for YAMSSRECGIRNSGLILSMW (on M13 phage, pIII fusion with E-tag) [DGI-2-20F-PP-C9]: “binds”; for SVTISTSCRTGCPAGYLRRD (not fully specified; cysteine pairing not given here, on M13 phage, pIII fusion with E-tag) [DGI-2-20F-PP-D2]: “binds”; for GLYQRGLAPRCRGERFGVRN (on M13 phage, pIII fusion with E-tag) [DGI-2-20F-PP-C2]: “binds”.

TFTRDVAGPAVSFVRLHSWN (on M13 phage, pIII fusion with E-tag) [DGI-2-20F-PP-A9]: the binding result was “binds”. The same measure for RSYPRLCKQKGGVIGRMLPG (on M13 phage, pIII fusion with E-tag) [DGI-2-20F-PP-B2]: “binds”; for WWREWVDGSLRGGGGTVLKD (on M13 phage, pIII fusion with E-tag) [DGI-2-20R-3-A122]: “binds”. VWRDWVNGTVGLRNREKPGV (on M13 phage, pIII fusion with E-tag) [DGI-2-20R-3-A5]: the binding result was “binds”.

With RQRSGGRWVVDRVTRVASTSP (on M13 phage, pIII fusion with E-tag) [DGI-2-20F-PP-B12], the binding result is “binds”. In the case of LLLPVRWRDAQPRSLLMEWI (on M13 phage, pIII fusion with E-tag) [DGI-2-20F-PP-F8], the binding result was “binds”.

Regarding CGGWGAMWEAWVQGLNGAGC (not fully specified; cysteine pairing not given here, on M13 phage, pIII fusion with E-tag) [DGI-2-20R-3-D4], the binding result is reported as “binds”. Regarding GRWDGWEVCGIWGADDCASG (not fully specified; cysteine pairing not given here, on M13 phage, pIII fusion with E-tag) [DGI-2-20R-4-H1], the binding result was “binds”. In the case of VGQSSGDARPLANLFVFPFV (on M13 phage, pIII fusion with E-tag) [DGI-2-20F-PP-F12] it was “binds”; in that of PVYRVAMCRISVGCSAGAWF (not fully specified; cysteine pairing not given here, on M13 phage, pIII fusion with E-tag) [DGI-2-20F-PP-C12], “binds”; in that of LWRRWSEGQLLGDGELRGDG (on M13 phage, pIII fusion with E-tag) [DGI-2-20R-3-B52], “binds”. As to VWAAWVEGSLLSPRQEPVRD (on M13 phage, pIII fusion with E-tag) [DGI-2-20R-4-G4], the binding result is reported as “binds”. In the case of RKGWGVFCIPGLRFCDWSDP (not fully specified; cysteine pairing not given here, on M13 phage, pIII fusion with E-tag) [DGI-2-20R-3-B4] it was “binds”; in that of VVGYAQGDGLEGGLGSSRDGS (on M13 phage, pIII fusion with E-tag) [DGI-2-20F-PP-D8], “binds”; in that of RISVGQCGTSRCGGGRRGGG (not fully specified; cysteine pairing not given here, on M13 phage, pIII fusion with E-tag) [DGI-2-20F-PP-D1], “binds”. As for SAFGCPLPRALGGGGARFYA (on M13 phage, pIII fusion with E-tag) [DGI-2-20F-PP-E11], the binding result is “binds”. The same measure for EGQRVVFLFGALVAGLCWRDR (on M13 phage, pIII fusion with E-tag) [DGI-2-20F-PP-F3]: “binds”; for SVSGGGVFGTGGRVRHQVSG (on M13 phage, pIII fusion with E-tag) [DGI-2-20F-PP-C5]: “binds”; for GHGAGDWAAELFVCPVAFLTGFAWR (on M13 phage, pIII fusion with E-tag) [DGI-2-20R-4-H2]: “binds”. In the case of DGRGWGAMWMRWAEGLGADI (on M13 phage, pIII fusion with E-tag) [DGI-2-20R-4-G114] it was “binds”; in that of GASRVVDVGWRFWGKLWQRS (on M13 phage, pIII fusion with E-tag) [DGI-2-20F-PP-G5], “binds”; in that of LFSATGCALMSGFCLGSDGS (not fully specified; cysteine pairing not given here, on M13 phage, pIII fusion with E-tag) [DGI-2-20R-3-C1], “binds”. The same measure for SLLCVVCRPVSGGRALGGVP (not fully specified; cysteine pairing not given here, on M13 phage, pIII fusion with E-tag) [DGI-2-20F-PP-B42]: “binds”; for FRMWVQSCFWGQPGTGCGEG (not fully specified; cysteine pairing not given here, on M13 phage, pIII fusion with E-tag) [DGI-2-20R-3-D2]: “binds”; for CYLSRLFRSGQGIGQFGHVE (on M13 phage, pIII fusion with E-tag) [DGI-2-20F-PP-A82]: “binds”. Consider RRGVCEIFTGWCVGQTNERP (not fully specified (bridges); cysteine pairing not given here, on M13 phage, pIII fusion with E-tag) [DGI-2-20R-4-H626], for which the binding result is “binds”. The same measure for MGADTCMGGKMPFDQMFGAV (on M13 phage, pIII fusion with E-tag) [DGI-2-20F-PP-E10]: “binds”.

The record behind these values is patent US7056679 (ANTYRA, dated 2006).
